Results taken from patent US20240092918A1 (Novartis, published 2024).
One block for each binder: values may come before it.

Legend:
[1] = molecular target: T1, Human CCR7 (human, UniProt P32248 25-378); experiment: cell-based or functional assay
T1 sequence: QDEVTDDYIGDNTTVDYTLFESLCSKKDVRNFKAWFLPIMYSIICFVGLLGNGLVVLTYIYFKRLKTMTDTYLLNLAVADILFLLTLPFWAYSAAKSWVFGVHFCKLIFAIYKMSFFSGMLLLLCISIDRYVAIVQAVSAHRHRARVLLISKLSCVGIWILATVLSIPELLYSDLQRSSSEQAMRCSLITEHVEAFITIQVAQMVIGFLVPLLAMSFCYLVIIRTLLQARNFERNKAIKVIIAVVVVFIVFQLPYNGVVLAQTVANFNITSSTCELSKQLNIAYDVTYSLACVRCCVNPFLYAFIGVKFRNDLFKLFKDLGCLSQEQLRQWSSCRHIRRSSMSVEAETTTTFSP

[2] = molecular target: T1, Human CCR7; experiment: cell-based or functional assay; remark: listed apart in the source
[3] = molecular target: T1, Human CCR7; experiment: FACS binding assay
[4] = molecular target: T1, Human CCR7; experiment: cell-based or functional assay; remark: listed apart in the source

B1: 506E15 Parental (antibody, V domains shown)
VH: EVMLVESGGGLVKPGGSLKLSCAASGFTFSSYAMSWIRQTPEKRLEWVATISSGGSFTYYPDSVKGRFTISRDNVKNTLYLQMSSLRSEDTAMYYCARRASTVVGTDFDVWGAGTTVTVSS
VL: DIQMTQSPSSLSASLGERVSLTCRASQDIGSSLNWLQQEPDGTIKRLIYATSSLDSGVPKRFSGSRSGSDYSLTISSLESEDFVVYYCLQYASSPPTFGGGTKLEIK
- 506E15 IC50 (nM); ADCC reporter assay, ALL-SIL cells (6,200 CCR7 receptors) [1]: 0.008 nM
- 506E15 IC50 (nM); ADCC reporter assay, CMLT-1 cells (29,000 CCR7 receptors) [1]: 0.011 nM
- 506E15 IC50 (nM); ADCC reporter assay, DEL cells (62,000 CCR7 receptors) [1]: 0.074 nM
- 506E15 IC50 (nM); ADCC reporter assay, DND-41 cells (1,700 CCR7 receptors) [1]: 0.002 nM
- 506E15 IC50 (nM); ADCC reporter assay, JVM2 cells (66,500 CCR7 receptors) [1]: 0.046 nM
- 506E15 IC50 (nM); ADCC reporter assay, Jurkat V158 cells (3,400 CCR7 receptors) [1]: 0.004 nM
- 506E15 IC50 (nM); ADCC reporter assay, MOTN-1 cells (64,600 CCR7 receptors) [1]: 0.077 nM
- 506E15 IC50 (nM); ADCC reporter assay, PEER cells (8,700 CCR7 receptors) [1]: 0.038 nM
- 506E15 IC50 (nM); ADCC reporter assay, SR786 cells (27,800 CCR7 receptors) [1]: 0.011 nM

B3: 684E12 non-humanized CysMab (antibody, human IgG1, kappa, V domains shown)
VH: EVHLVESGGGLVKPGGSLKLSCAASGFTFSNFAMSWVRQTPEKRLEWVATISTGGTYTYYPDSVKGRFTISRDNAKKTLYLQMSSLRSEDTAMYYCTRRGYDGVDKWGQGTTLTVSS
VL: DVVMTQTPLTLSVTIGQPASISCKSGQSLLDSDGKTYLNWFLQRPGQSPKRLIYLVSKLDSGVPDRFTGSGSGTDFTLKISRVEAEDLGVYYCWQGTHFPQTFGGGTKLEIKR
- ADCC activity; IC50 (nM); surrogate ADCC reporter assay, JVM2 target cells and Jurkat-V158 effector cells [2]: 2.63 nM

B5: 674J13.CysMab.DAPA.AURIX2 (antibody, human IgG1, kappa, V domains shown)
VH: DVQLQESGPGLVKPSQTLSLTCTVSGYSITSGYSWHWIRQHPGKGLEWMAHIHSSGSTNYNPSLKSRITISRDTSKNQFSLKLSSVTAADTAVYYCARGGVQAFAYWGQGTLVTVSS
VL: EIVLTQSPATLSASPGERVTMSCSASSSVIYMHWYQQKPGQAPRRWIYDTSKLASGVPARFSGSGSGTDYTLTISSMEPEDAAVYYCQQWSSNPLTFGQGTKLEIKR
modifications: DAR LC 0.03; AURIX2 on the engineered cysteines; DAR HC 3.93
notes: also called 674J13.DAPA.AURIX2
- ADC activity in cell viability assay; IC50 (nM); CML-T1 cells (~29,000 CCR7 receptors) [4]: 3.78 nM
- ADC activity in cell viability assay; IC50 (nM); DEL cells (~100,000 CCR7 receptors) [4]: 0.242 nM
- ADC activity in cell viability assay; IC50 (nM); KE97 cells (~100,000 CCR7 receptors) [4]: 0.102 nM
- ADC activity in cell viability assay; IC50 (nM); SR786 cells (~28,000 CCR7 receptors) [4]: 2.74 nM
- geometric mean fluorescence intensity, difference from the unconjugated antibody [3]: ≤ 20%

B6: 121G12 non-humanized CysMab (antibody, human IgG1, kappa, V domains shown)
VH: EVQLVESGGGLVKPGGSLKLSCAASGFTFSTYAMSWVRQTPEKRLEWVATISDGGSYSYYPDNVKGRFTISRDNAKNNLYLQMSHLKSEDTAMYYCARRGSRYEEYYVMDYWGQGTSVTVSS
VL: DIVLTQSPATLSVTPGDSVSLSCRASQSISNNLHWYQQKSHESPKLLIKYASQSISGIPSRFSGSGSGTDFTLSINSVETEDFGMYFCQQSNSWLTFGAGTKLGLKR
- ADCC activity; IC50 (nM); surrogate ADCC reporter assay, JVM2 target cells and Jurkat-V158 effector cells [2]: 0.077 nM

The remaining lines, values ahead:

- ADCC activity; IC50 (nM); surrogate ADCC reporter assay, JVM2 target cells and Jurkat-V158 effector cells [2]: 0.131 nM
B2: 506E15 non-humanized CysMab (antibody, human IgG1, kappa, V domains shown)
VH: EVMLVESGGGLVKPGGSLKLSCAASGFTFSSYAMSWIRQTPEKRLEWVATISSGGSFTYYPDSVKGRFTISRDNVKNTLYLQMSSLRSEDTAMYYCARRASTVVGTDFDVWGAGTTVTVSS
VL: DIQMTQSPSSLSASLGERVSLTCRASQDIGSSLNWLQQEPDGTIKRLIYATSSLDSGVPKRFSGSRSGSDYSLTISSLESEDFVVYYCLQYASSPPTFGGGTKLEIKR

- geometric mean fluorescence intensity, difference from the unconjugated antibody [3]: ≤ 20%
B4: 684E12.SMCC.DM1 (antibody, V domains shown)
VH: EVHLVESGGGLVKPGGSLKLSCAASGFTFSNFAMSWVRQTPEKRLEWVATISTGGTYTYYPDSVKGRFTISRDNAKKTLYLQMSSLRSEDTAMYYCTRRGYDGVDKWGQGTTLTVSS
VL: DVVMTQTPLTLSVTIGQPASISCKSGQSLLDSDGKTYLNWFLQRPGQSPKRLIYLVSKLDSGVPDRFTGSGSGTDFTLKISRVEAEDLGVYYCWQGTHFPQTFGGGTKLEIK
modifications: SMCC-DM1 on lysines of the antibody, sites not defined; DAR 2.6
notes: also called parental 684E12.SMCC.DM1 (DAR2.6)

- geometric mean fluorescence intensity, difference from the unconjugated antibody [3]: ≤ 20%
B7: 121G12.CysMab.AURIX1 (antibody, human IgG1, kappa, V domains shown)
VH: EVQLVESGGGLVKPGGSLKLSCAASGFTFSTYAMSWVRQTPEKRLEWVATISDGGSYSYYPDNVKGRFTISRDNAKNNLYLQMSHLKSEDTAMYYCARRGSRYEEYYVMDYWGQGTSVTVSS
VL: DIVLTQSPATLSVTPGDSVSLSCRASQSISNNLHWYQQKSHESPKLLIKYASQSISGIPSRFSGSGSGTDFTLSINSVETEDFGMYFCQQSNSWLTFGAGTKLGLKR
modifications: AURIX1 on the engineered cysteines; DAR 3.80
notes: also called 121G12.AURIX1; 121G12 parental.Cys-Mab.wild type Fc.hIgG1.AURIX1
